Results on 167 variants are retold here after the RNAGym collection of RNA variant scans (doi:10.7554/elife.80360).

B1: Hammerhead Ribozyme (parent)
chain: ACCGGAUGUGCUUUCCGGUCUGAUGAGUCCGUGAGGACGAAACAG

In the data set the parent is B1. Briefly: self-cleavage, relative activity (ratio to wild type); higher = more cleavage; co-transcriptional.
As for G4A U12G, the self-cleavage was found to be 0.541.
For the variant G4A U12C, the self-cleavage was found to be 0.305.
Then G4A U12A, with 0.589; and G4C U32A, with 0.743; and G4C U32G, with 0.324.
Then G4C U32C, with 0.736.
Then G4U C29G, with 0.358.
For the variant G4U C29U, the self-cleavage came out at 0.413.
The value for G4U C29A was 0.265; that for G4U U19G was 0.343; that for G4U U19C was 0.345.
In the case of G4U U19A, the self-cleavage came out at 0.304.
Take G4C A26U: the self-cleavage amounted to 0.427.
As for G4C A26C, the self-cleavage was found to be 0.289.
For the variant G4C A26G, the self-cleavage was 0.276.
The value for G5A was 1.32; that for G4C G39U was 0.293.
Then G4C G39C, with 0.244; and G4C G39A, with 0.326.
In the case of G4A U13G, the self-cleavage turned out to be 0.616.
On to G4A U13A, for which the self-cleavage stood at 1.01.
Then G4A U13C, with 0.824; and G5A A40U, with 0.409; and G5A A40G, with 0.379.
For G5A A40C, the self-cleavage turned out to be 0.476.
Regarding G4U G31A, the self-cleavage stood at 0.612.
Then G4U G31C, with 0.56.
Turning to G4U G31U, the self-cleavage is 0.75.
The value for G4A U14G was 0.542.
For G4A U14C, the self-cleavage is 0.404.
The value for G4A U14A was 0.49.
Consider G4C U28G, for which the self-cleavage stood at 0.326.
G4C U28C: the self-cleavage came out at 0.331.
With G4C U28A, the self-cleavage was determined as 0.297.
On to G4C C38A, for which the self-cleavage came to 0.478.
With G4C C38G, the self-cleavage turned out to be 0.346.
With G4C C38U, the self-cleavage was found to be 0.643.
Consider G4C G17U, for which the self-cleavage turned out to be 0.291.
Take G4C G17C: the self-cleavage stood at 0.291.
On to G4C G17A, for which the self-cleavage is 0.298.
In the case of G4C G35U, the self-cleavage was 0.426.
For the variant G4C G35A, the self-cleavage came to 0.297.
The value for G4C G35C was 0.341; that for G4U G10U was 0.558.
Turning to G4U G10A, the self-cleavage came to 0.588.
With G4U G10C, the self-cleavage amounted to 0.469.
Consider G4C A34C, for which the self-cleavage came out at 0.679.
On to G4C A34G, for which the self-cleavage was found to be 0.596.
With G4C A34U, the self-cleavage was 0.585.
Then G4C G22U, with 0.238; and G4C G22A, with 0.297.
G4C G22C: the self-cleavage came to 0.241.
For G4U G27C, the self-cleavage came out at 0.35.
Then G4U G27A, with 0.312; and G4U G27U, with 0.294.
Regarding G4C G5A, the self-cleavage is 0.365.
As to G4C G5C, the self-cleavage worked out at 0.327.
On to G4C G5U, for which the self-cleavage worked out at 0.418.
For the variant G4C G8U, the self-cleavage worked out at 0.353.
Regarding G4C G8C, the self-cleavage worked out at 0.592.
Take G4C G8A: the self-cleavage was found to be 0.543.
Consider G4C U13G, for which the self-cleavage stood at 0.962.
As for G4C U13C, the self-cleavage stood at 0.856.
Then G4C U13A, with 1.04; and G4U, with 0.515; and G4C, with 0.784.
Then G5A A42G, with 0.387; and G5A A42C, with 0.359.
Take G5A A42U: the self-cleavage amounted to 0.353.
In the case of G4C A23U, the self-cleavage was 0.314.
G4C A23G: the self-cleavage stood at 0.225.
For G4C A23C, the self-cleavage amounted to 0.299.
The value for G4C A37U was 0.294; that for G4C A37C was 0.328.
G4C A37G: the self-cleavage was found to be 0.516.
Turning to G5A A37C, the self-cleavage is 0.542.
Regarding G5A A37G, the self-cleavage came out at 0.773.
On to G5A A37U, for which the self-cleavage was found to be 0.603.
Then G4U A40G, with 0.303; and G4U A40U, with 0.297.
As to G4U A40C, the self-cleavage was found to be 0.224.
Regarding G4U U24G, the self-cleavage is 0.372.
In the case of G4U U24A, the self-cleavage came out at 0.442.
Take G4U U24C: the self-cleavage stood at 0.549.
Consider G4U G25C, for which the self-cleavage came to 0.339.
Consider G4U G25A, for which the self-cleavage came out at 0.25.
Turning to G4U G25U, the self-cleavage came out at 0.253.
On to G4U U12A, for which the self-cleavage amounted to 0.547.
G4U U12G: the self-cleavage was found to be 0.564.
On to G4U U12C, for which the self-cleavage amounted to 0.496.
With G4A G31U, the self-cleavage worked out at 0.678.
With G4A G31A, the self-cleavage is 0.641.
Then G4A G31C, with 0.594.
The value for G4U C38G was 0.323; that for G4U C38A was 0.289.
With G4U C38U, the self-cleavage is 0.315.
Turning to G4C C11G, the self-cleavage amounted to 0.767.
With G4C C11A, the self-cleavage turned out to be 0.67.
For the variant G4C C11U, the self-cleavage was 0.331.
For the variant G4A G39C, the self-cleavage was determined as 0.319.
For G4A G39A, the self-cleavage turned out to be 0.353.
Turning to G4A G39U, the self-cleavage is 0.26.
The value for G4A U28C was 0.306; that for G4A U28A was 0.364.
Turning to G4A U28G, the self-cleavage was found to be 0.341.
Consider G5A A23U, for which the self-cleavage came to 0.304.
For G5A A23G, the self-cleavage worked out at 0.385.
In the case of G5A A23C, the self-cleavage amounted to 0.315.
For the variant G4C G27U, the self-cleavage worked out at 0.326.
Then G4C G27C, with 0.412; and G4C G27A, with 0.476; and G4U C16G, with 1.09.
Consider G4U C16U, for which the self-cleavage is 1.05.
In the case of G4U C16A, the self-cleavage turned out to be 1.07.
Consider G4A U7G, for which the self-cleavage came to 0.335.
In the case of G4A U7A, the self-cleavage was 0.538.
Then G4A U7C, with 0.294; and G4C G31A, with 0.939; and G4C G31C, with 0.768.
The value for G4C G31U was 0.748; that for G5A A26C was 0.464; that for G5A A26G was 0.398.
Take G5A A26U: the self-cleavage is 0.66.
Then G4C U14A, with 0.512.
The value for G4C U14C was 0.475; that for G4C U14G was 0.733.
Take G4U G22C: the self-cleavage worked out at 0.345.
For the variant G4U G22U, the self-cleavage turned out to be 0.296.
Then G4U G22A, with 0.297; and G4A G25U, with 0.316; and G4A G25A, with 0.313.
For G4A G25C, the self-cleavage is 0.32.
Take G4U A44U: the self-cleavage was found to be 0.33.
As for G4U A44G, the self-cleavage worked out at 0.789.
For G4U A44C, the self-cleavage worked out at 0.401.
The value for G4U A37G was 0.305; that for G4U A37C was 0.329; that for G4U A37U was 0.286.
As to G4C C29A, the self-cleavage turned out to be 0.317.
Regarding G4C C29U, the self-cleavage is 0.567.
With G4C C29G, the self-cleavage stood at 0.347.
The value for G4U C20A was 0.294; that for G4U C20U was 0.364; that for G4U C20G was 0.272.
On to G4U G33A, for which the self-cleavage came to 0.608.
Turning to G4U G33C, the self-cleavage amounted to 0.416.
Then G4U G33U, with 0.576; and G4U G18A, with 0.297; and G4U G18C, with 0.275.
The value for G4U G18U was 0.323; that for G4A U24G was 0.546; that for G4A U24A was 0.682.
As for G4A U24C, the self-cleavage amounted to 0.59.
Then G4A G18U, with 0.323; and G4C G36U, with 0.281.
For the variant G4C G36C, the self-cleavage was found to be 0.247.
Then G4C G36A, with 0.282; and G4U U14C, with 0.416; and G4U U14A, with 0.469.
The value for G4U U14G was 0.722.
Consider G4A G33A, for which the self-cleavage amounted to 0.55.
In the case of G4A G33U, the self-cleavage turned out to be 0.597.
With G4A G33C, the self-cleavage was found to be 0.549.
In the case of G4U G45C, the self-cleavage is 0.324.
For the variant G4U G45U, the self-cleavage turned out to be 0.446.
The value for G4U G45A was 0.351; that for G4U G5C was 0.352.
